{"source": "the DeepSol protein solubility set", "data": [{"test": "soluble on expression in E. coli; label from the status in PepcDB or PDB records", "values": [{"sequence": "SLNPRDVVIVDFGRTPMGRSKGGMHRNTRAEDMSAHLISKVLERNSKVDPGEVEDVIWGCVNQTLEQGWNIARMASLMTQIPHTSAAQTVSRLCGSSMSALHTAAQAIMTGNGDVFVVGGVEHMGHVSMMHGVDPNPHMSLYAAKASGMMGLTAEMLGKMHGISREQQDAFAVRSHQLAHKATVEGKFKDEIIPMQGYDENGFLKIFDYDETIRPDTTLESLAALKPAFNPKGGTVTAGTSSQITDGASCMIVMSAQRAKDLGLEPLAVIRSMAVAGVDPAIMGYGPVPATQKALKRAGLNMADIDFIELNEAFAAQALPVLKDLKVLDKMNEKVNLHGGAIALGHPFGCSGARISGTLLNVMKQNGGTFGLSTMCIGLGQGIATVFERV", "soluble on expression in E. coli": "soluble"}, {"sequence": "MGSDKIHHHHHHMKYMIGIDGGGTKTEAIAFDKDGNELVRATSGFGNILIDFEEALVHIMEAIDQCQKGVLNEHCVCICLGLAGVSGVNTNELTLRLKKKYGTPIEVFNDAMIAHAAVLKGKDGILTIGGTGTICLGKKGEVYEYSGGWGHILGDAGSGYWIGLQALKRMANQLDQGIRLCPLSLRIQDEFQLLTASHIKRLVYRSSKDKVAAITPFVIREARNGNDAAHEIMMQAGKELARITIDVYNKMQLDLLVSIAVSGSILRFVPEIYDEFKKCCEKSVGEVTFVLQSEPAVKGTYYLMKNMYFKK", "soluble on expression in E. coli": "not soluble"}, {"sequence": "MLLEAPVYKEIFGAVTIHEVQKVIKMDTETEEVPIYTISNIPREKIYDLLGKMAVIVPMKNEKLHLVDGVLKAIPHKCPIIIVSNSKREGPNRYKLEVDLIRHFYNLTHSKIIMIHQKDPGLAKAFKEVGYTDILDENGMIRSGKGEGMLVGLLLAKAIGAEYVGFVDADNYIPGAVNEYVKDYAAGFLMSESEYTMVRLHWRHKPKVTKGTLYFKKWGRVSEITNHYLNLLVSEHTAFETTIMVTGNAGEHAMTMKLAEILPFSTGYSIEPYEIVYILERFGKWENVEEFKDVFDQGIEIFQIETLNPHFHEDKGKEHVKEMLLLSLATIYHSKLATDNLRKRILKDLRDHGILGENEEPPKPLVMRPIKEIPIKEWMDIVEGNSETLLRFEL", "soluble on expression in E. coli": "soluble"}, {"sequence": "MLLKALCIINALIIGIINADILSDPNYRIFRDISAIRQVVTLARPVKNVSTTELPTYYETNYNISRRVKRQACASSCAPLEKATTPAYEGLIATENFYITYSTDGSGCPIADLTCVGGDMATLDYLDQNGDIITLGDGGDDYNILEAQLKCFAFGWGAATATEVIDGNSLNCNVLTDIPVTTTTSTTSSTTTTTATSTTESTSTSTDSTTTESTTESTTESTSTSTDSTTTESTTESTTESTSTSTDSTTTESTSTSTDSTTTESTTESTTESTSTSTDSTTTSLPALPLILLQPSLPQNQLRSLPAHPLNLLQPSLPQNQLRSLPALPLILLQPSRQALPLILLQPSLPQNQLRSLPAHPRILPRPSLPALPLILLQPSLPQNQLRSLLAHPLILPRLSQQQNQLRSLPAHPPILLQPSLPQNQLRSLPALPLILLQPSLPLNQLRSLPAHPLILLQPSQQQNQLRSLPAHPLILPRPSLPLNQLRSLPAHPLILLQPSLPQNQLRSQPAHPLILPRLSQQAHPLIPPRPSRRALRLILPQLKLLLLRLTLQRQCQELHAVHLEVSGVNGLLTLLALQHVDLVHNKSTDVFALLKLIVEHARMGADVKIQNCNVGVCYFPLDSCCAGYTATVSGTLHICGPQPTTTTPAPNDETCCPLDGIWGAWGEWSVCTGTTCGNCGGSRTRTRVCASDSFCSCNGDTTESENCRLLSSWSEWTTTGTCNQTACGTCQTLTYTRTCLKTNGCFCMGSATKTDYCSRKPCATGTACCNSLTAQTVDGVSICGPVEAAEDETDPVPCTTTTPACCVLGGVWSEWSSGDACNDTCGNCGVTTLSRVCLSQDYNCACSGSTTKQSECAPAPCPFPRTSCCGARKKVIVGRTFECSSADDSDAAPSTLCAVDCCPAAGGYWSEWTTGGSCPTTCGSCSTVTQKRVCMSPSTCPCQGVSSRSVNCGITVCYFPDDSCCAGYSATVSGTQHICGPQPNYTTPYAPYDPTCTDNCCPETGIWSDWTSTPNQCRDYCGSCGNQTRTRTCTSDADGCPCQGPTTITEPCGTGVCYFPRLSCCPGYTATVEGNQHICGPLTTAVADPDKLNTCGVSCCPSAGIWGEWVSVSGCNDTCGSCGQETRKRKCLSLQYGCACTGNATDTSVCASSVCLFPRTSCCTGFKKMVNITGRTFYCGPLPVVPAFNPEQTTCCDPEKTGLWNDWGAWTTCSATCGGCGTQTRSRTCASAPYGCPCTGDLTETQSCAKQVCTTGAQCCAGKFVATGYDGAQYCQDNTPEVCTGTWTEWATLEGAVCNDTCGNCGIIPTSRYCFPSGCQCSGAYTGTQACANSVCLFPRTSCCAPYKKKIVGKTFACA", "soluble on expression in E. coli": "not soluble"}, {"sequence": "MGSDKIHHHHHHVEKFDLENFPVSESAKNMIASVSDGFYDNSYVGKWLYEVMGQEYDTAREIAEDILNQLFPETATWGLMYHEIKWGLPVRENLPYEERRQLIYRKRDYRAPMTPYRMEGYLKTATGFDVRIADINDPGDYGFVAPHPNVFKAYFMGEGTLASKRARAMLNELKQSHTMFTMNDRTEIVSDNRNLEEMNLKKIIFHIAESFWYSDLLDGRKPLDGSSLLYPYMRYNLMLGFKYMLGGFTTPTDADLQKVKFRAEQKTENDVKAGAIRIASDIIFWNTHLLDGSWDLDGSHRLDVTRGYQLGVAIVAMVACAYNKVTDSMKVRSTYGLRSSSDARAAIRSEFEADFWNTVYLDGKLLLDGNAMLEHRGGNKRLEAAVTHHMGIEREDMDVEAQVITKTRNYWFLDGSNALDGKKNLNSIYRKEYIQ", "soluble on expression in E. coli": "not soluble"}, {"sequence": "MGSSHHHHHHSSGLVPRGSHMNIGDTLNHSLLNHPLMLSGSTCKTLSDYTNQWLVLYFYPKDNTPGSSTEGLEFNLLLPQFEQINATVLGVSRDSVKSHDSFCAKQGFTFPLVSDSDAILCKAFDVIKEKTMYGRQVIGIERSTFLIGPTHRIVEAWRQVKVPGHAEEVLNKLKAHAEQ", "soluble on expression in E. coli": "soluble"}, {"sequence": "MGHHHHHHSHGESEDVTQFLQSHKKTLTNEKLFLMDGKRTWFLEMESTPGEDAMNTVKMTTKDLKYDRSLIDKAGFERTDSNFERSHTVGKMLSNSIMCYRDIFYERESQLMQQTSLLSYEIAIATPTFSNYYPDWSAPINIVARPSTSKKIMTC", "soluble on expression in E. coli": "not soluble"}, {"sequence": "MSADAYHPPTTSPRLETLDVLSIGMSLDVFRQGQVWKALQEQNAAQAEALHVGSILPMDPKKYPTSADDKDMAYEKRQADALELGLKNFLEKWPIPTVTVVRGWDPSTPNLRFTPEETRESLSVKVNDLRVPAGLHWHRIANLQDGIICNDTPEGVLEALFSLFERNPDLPAVLVYANEGISMAGALSSRDVTLKSLGAVSGPRIPGTLTDAMVALIVGRPERVDWLRQFAPYTKVNENRIDPEFRGWGWRKPPVEFRPTPFIPQPWTERALEQWDALPVLARLHRPVSVPLTHPDTGERLKREALTAQLAAAWKTASAGLRPAPARLFYDGGLNATPLAELTPALGAAQSSLDLLDSRESYDLTQRLGDTGAASPFVGITLATMASYLNGDSSMVMPLRRKDQATLIGISSPTPGKKPVHDPFGVDLLPQTASGDGPPPSADPVAPASRLTTRLPPGEDYALEEFLSSLKPSTDWQDDL", "soluble on expression in E. coli": "not soluble"}, {"sequence": "MRKVTVSLIKADVGSVAGHTTVPDELKKAAEENLKNAVDSGLIIDFRVFNAGDDLELLMTHDKGVDSEEIHRLAWETFEKAAGIAKELKLYGAGQDLLKDAFSGNVRGLGPGVAEMEFTERKAEPVIAFMMDKTEPGAFNMPIFRMFADPFNTAGLVIDPTMHQGFVFEIWDIKESKRVFMRTPEEMYDILALIGGKSRFVIKRVYPKEGGKLPADEPVAVISTEKLYEVAGEYVGKDDPVALVRAQSGLPAVGEVLEPFAFPHLVSGWMRGSHNGPIMPVPFKYSKCTRFDGPPRCIAAGFQLANGKIIGPVDMFDDPAFDYTRQKAMEIAEYMRRHGPFEPHRLPSEDMEYTTLPKVLEKLKGRFEEV", "soluble on expression in E. coli": "not soluble"}, {"sequence": "AHHHHHHASAKWVCKICGYIYDEDAGDPDNGISPGTKFEELPDDWVCPICGAPKSEFEKLEDGSFLPYLSSPYPLYLINLMLMECPPDIYSFSTQNSNNQLKGLFMFKKKEYDRWMVEAKRTLASAYSDLREGYYEWASFKAQQAAELAVKAILRGLSFAPIGHSITKLLRELAENNIKGPKKILYFAMKLDRNYIALRYPDAYPEGPH", "soluble on expression in E. coli": "soluble"}]}]}
